Results reported in paper PMC11063191, “Galectin-3 impairs calcium transients and β-cell function” (Nature Communications, 2024).

Target: T1, Mouse Gal3 protein (recombinant) (mouse, UniProt P16110 1-264)
T1 construct: Galectin-3, mouse, bought protein; R&D is named as the source only for the BLI assay; also called galectin-3; source: bought: R&D
Experiment: BLI; His-tagged CACNG1 (30-109) captured on Ni-NTA biosensors, Gal3 in a concentration gradient, Octet (ForteBio), 30 °C
Details: both partners purified

T1 sequence (P16110 whole entry): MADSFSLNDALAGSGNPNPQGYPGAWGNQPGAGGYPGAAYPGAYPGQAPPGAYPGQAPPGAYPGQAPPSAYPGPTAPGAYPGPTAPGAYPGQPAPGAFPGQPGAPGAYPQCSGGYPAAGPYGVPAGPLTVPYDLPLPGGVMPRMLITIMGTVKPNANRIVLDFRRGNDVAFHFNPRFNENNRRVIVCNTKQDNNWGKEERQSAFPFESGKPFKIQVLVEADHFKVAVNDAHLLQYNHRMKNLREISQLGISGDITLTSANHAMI

Kd: 180 nM
B1: Extracellular domains of mouse CACNG1 (30-109 AA) with His tags (domain or fragment, UniProt O70578 30-109, looked up)
chain: DHWAVLSPHLEHHNETCEAAHFGLWRICTARVAVHNKDKSCEHVTPSGEKNCSYFRHFNPGESSEIFEFTTQKEYSISAA
modifications: includes the two glycosylation sites
notes: CACNG1, mouse, extracellular domains, residues 30-109, including the two glycosylation sites
